Patent publication US7888090B2, “Mutants of O6-alkylguanine-DNA alkyltransferase” (Ecole Polytechnique Federale de Lausanne, priority 2004, dated 2011)

Columns and labels:
[1] = tested on: CHO cells; experiment: Selective labelling in cells after CPTG pre-incubation; format: cell-based; settings: 5 µM CPTG 10 min, then 5 µM fluorescent substance 4 20 min
Text: In a further experiment, the mutant AGTM as described in Example 6 is amplified with the primers SEQ ID NO:34 and SEQ ID NO:36 and cloned between the NheI and BgIII sites of the vector pEGFP-Nuc. The […]-galactosidase gene is amplified with the primers SEQ ID NO:37 and SEQ ID NO:38 and subcloned into this vector via BgIII/BamHI to result in a vector with an AGTM-[…]-Gal fusion gene. The hAGT gene is amplified by the principle described under Example 1 with the primers SEQ ID NO:39, SEQ ID NO:40, SEQ ID NO:34, and SEQ ID NO:35 and cloned via NheI/BgIII into pEGFP-Nuc to result in an AGT-NLS3 fusion gene coding for the mutation Gly160Trp. After transient expression of both AGT mutants in parallel, the cells are incubated with 5 µM CPTG for 10 min and subsequently with 5 µM of substance 4 of Juillerat et al., Chem Biol 10:313-317, 2003, for 20 min. The cells are washed and imaged as described under Example 1.

[2] = Expression yield of soluble GST-AGT fusion protein; parameters: species or system E. coli; settings: comparator not stated
Summary of the method: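 GST-AGT fusions expressed in E. coli BL21, induced with 0.5 mM IPTG for 3.5 h at 24 °C, and purified from the soluble fraction on glutathione sepharose. Soluble and insoluble fractions compared by SDS-PAGE. Yield taken from A280 relative to wild-type hAGT purified the same way.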

[3] = Reactivity towards N^9-modified O^6-benzylguanine derivatives (preblocking, BG-Cy3 assay); format: biochemical; settings: 100 µM BG, 15 min
Description: FIG. 3: Reactivity of AGT mutants with N^9-modified BG derivatives. 10 µM AGTM (grey bars) or PGEG-hAGT (black bars) were preblocked with 100 µM N^9-modified BG derivatives (see list below), and subsequently labeled with 20 µM BG-Cy3. After 1 h reaction time, fluorescence intensity (FI) indicated in arbitrary units [a.u.] at 595 nm is measured. The black bold line is set at the reading for condition 1 corresponding to background fluorescence of the fluorophore not attached to protein. Values above this line indicate slow or incomplete reaction with N^9-modified BG-derivative. • 1 Fluorescence of BG-Cy3 without protein; background fluorescence. • 2 Reaction with BG-Cy3; no preblocking, positive control. • 3 Reaction with BG-Cy3, preblocked with 100 µM BG. • 4 Reaction with BG-Cy3, preblocked with 100 µM N^9-isobutyl-O^6-benzylguanine. • 5 Reaction with BG-Cy3, preblocked with 100 µM N^9-propyl-O^6-benzylguanine. • 6 Reaction with BG-Cy3, preblocked with 100 µM N^9-cyanomethyl-O^6-benzylguanine.
Reactivity of AGT towards N^9-modified O^6-benzylguanine derivatives: The experiment is based on the BG-Cy3 assay. Upon reaction of AGT with BG-Cy3, an increase of fluorescence emission intensity of Cy3 by a factor 2-3 can be observed. […]

B1: AGTM: AGT mutant Cys62Ala, Gln115Ser, Gln116His, Lys125Ala, Ala127Thr, Arg128Ala, Gly131Lys, Gly132Thr, Met134Leu, Arg135Ser, Cys150Asn, Ser151Ile, Ser152Asn, Asn157Gly, Ser159Glu, truncated after … (protein, UniProt P16455 1-207, looked up, variant C62A Q115S Q116H K125A A127T R128A G131K G132T M134L R135S C150N S151I S152N N157G S159E del183-207)
Methylated-DNA--protein-cystei …: MDKDCEMKRTTLDSPLGKLELSGCEQGLHEIKLLGKGTSAADAVEVPAPAAVLGGPEPLMQATAWLNAYFHQPEAIEEFPVPALHHPVFQQESFTRQVLWKLLKVVKFGEVISYSHLAALAGNPAATAAVKTALSGNPVPILIPCHRVVNINGAVGGYEGGLAVKEWLLAHEGHRLGKPGLG
modifications: His tag
- reaction with CPTG inside cells [1]: does not react with CPTG
- expression yield in E. coli [2]: increased expression yield
- AGT remaining active after preblocking with BG [3]: 5%
